From the supplement of paper PMC12042874 come the findings set out here.

± gives the uncertainty stated by the source.

The data set can be described thus: amyloid nucleation score (Sup35N fusion, yeast selection) (log enrichment); library NNK1; higher = more nucleation; inactive = no reads after selection. In outline: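 After 24 hours of induction with 100 μM copper sulfate, psi-negative yeast expressing peptides of 20 random codons fused to Sup35N were grown for 7 days at 30°C on medium lacking adenine and uracil. Input and output plasmid inserts were sequenced with Illumina, and sequences with under 100 input reads were discarded. Scores for nucleation are the DiMSum log enrichment of output over input reads, centred on the mode score of non-aggregating sequences.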
As for NNLRYPCLGRCSISFGMVCG, the amyloid nucleation score amounted to 0.593 ± 0.41. CYFVCNDHCYFYQSLLQTHE gave an amyloid nucleation score of 5.32 ± 0.058. Turning to YCAFTSLRIIRISNIFIRHE, the amyloid nucleation score result was “inactive”. With FEWRFPHQR the figure was -0.025 ± 0.64. HATMVSALLVWGW displayed an amyloid nucleation score of -0.286 ± 1.9. Take MLIFNGFTLLVMRVEVAVGS: the amyloid nucleation score was 0.066 ± 0.64. The substance IKFRCYLCG returned an amyloid nucleation score of 0.44 ± 0.9. On to NLRQHVYICYNLNGRTHFLW, for which the amyloid nucleation score turned out to be 6.719 ± 0.047. Consider IVYSLLYVRMSSNSMWVSV, for which the amyloid nucleation score was determined as 0.958 ± 0.9. In the case of YNGGGSYNWVWMGNSPVKTR, the amyloid nucleation score was 0.969 ± 0.61. In turn, MPIVKLTWLYTGVGAKPQVS returned an amyloid nucleation score of 0.211 ± 0.26. Regarding SAHHLVIRFGMLYPREQHCL, the amyloid nucleation score turned out to be 0.299 ± 0.43. For SMTLMWTTPSSYIAWI, the amyloid nucleation score was -0.792 ± 0.48.

TLCFQTISPRRPQLRWTWAH showed an amyloid nucleation score of 0.875 ± 0.61. As to YWAKCGWQAGKRYEV, the amyloid nucleation score was 0.803 ± 0.77. In the case of VKCVKVLMLHSWF, the amyloid nucleation score was 1.53 ± 0.38. Substance NFFIWLMVFIGDFFDLVTSA displayed an amyloid nucleation score of -0.94 ± 0.59. With IFISIVLLF, the amyloid nucleation score stood at 4.8 ± 0.079. Next, PSSLLNMDTTRGYHDPEWGI: -0.381 ± 0.3; TKCIINEIVDDG: -1.35 ± 2.4; FTNRTIFFV: -0.023 ± 0.91. YSMVI: the amyloid nucleation score result was “inactive”. The substance KKLVA registered an amyloid nucleation score of 0.286 ± 0.43. In the case of AWVRLYWAGR, the amyloid nucleation score turned out to be 0.216 ± 0.68.

In the case of HVFCQRGCCERRLKIYISVS, the amyloid nucleation score was -1.45 ± 0.57. Turning to HLVRRLYSKWMQT, the amyloid nucleation score was -0.711 ± 0.96. For the substance CVMWGTLRFLNLASGLFLCA, the amyloid nucleation score came to 0.778 ± 0.93. With YNFERDYLSVYHFAWLIP, the amyloid nucleation score worked out at 0.372 ± 0.54.

RTLLSFNRDVSFEGQPPGWL: the amyloid nucleation score is 0.352 ± 1.

TVLNDYWFSTHKLSIR returned an amyloid nucleation score of 0.958 ± 0.48. Regarding QLTVYMFFCYC, the amyloid nucleation score worked out at 5.378 ± 0.044. Regarding LVMRRKYLVNSNTLCSFGLH, the amyloid nucleation score result is “inactive”. As to DAFIV, the amyloid nucleation score is -0.684 ± 0.54. CIIVVSTRAADPDLCSYIML came in with an amyloid nucleation score of 0.234 ± 0.75. As for LWCITYH, the amyloid nucleation score was found to be 4.14 ± 0.1.

VVSYWTHYPNKSLSWASWAA came in with an amyloid nucleation score of -0.671 ± 1.2.

Turning to GLWMWEEVILISTLKLFVLV, the amyloid nucleation score stood at 0.139 ± 0.6. In the case of HCLSFMIFESNLIIFMNRIR, the amyloid nucleation score turned out to be 0.222 ± 0.2. Regarding VNEREPYNCCFMRFDTCTSP, the amyloid nucleation score is 1.31 ± 0.63. As to MLPMLQPTLQET, the amyloid nucleation score is 0.313 ± 0.42. Substance FIYLVLLSR registered an amyloid nucleation score of 1.32 ± 0.23. Consider KENRFISQSDTALYSIKKQH, for which the amyloid nucleation score was determined as 0.549 ± 1.

Turning to STTYCFFSYAGLRICYALMG, the amyloid nucleation score was 1.3 ± 0.2. For the substance SILGRWDHDLWNLFGARSLV, the amyloid nucleation score is -0.148 ± 0.89. In the case of SCVLRLNMAYIIVVVNSLEC, the amyloid nucleation score entry was “inactive”. The substance NIVFMCMCGLDI registered an amyloid nucleation score of 0.895 ± 0.29. Next, LRFPLARNHTGYQTGVTEFT: -0.526 ± 0.32; AFIDDRAVTCCYQTVLLCER: -0.341 ± 0.48; EMAELLAMRQLLRTKIH: 0.265 ± 0.34. The substance TRNMHKCCNTMTTLLSVLGS returned an amyloid nucleation score of -0.186 ± 0.75. LVQESRHGLIRIRRVLLRIS registered an amyloid nucleation score of -0.252 ± 0.52. LVNDPVFMGTWILSARICNV returned an amyloid nucleation score of 0.323 ± 0.36. In turn, NMIKYVTLKMRL showed an amyloid nucleation score of 0.328 ± 0.6. In turn, PFVNW had an amyloid nucleation score of 0.432 ± 0.84. VSQSETCPGV returned an amyloid nucleation score of 0.433 ± 0.53. For NVWLWDTKFILQTRIPS, the amyloid nucleation score was -0.026 ± 1.7.

FNAAYIAGVGNLMTWDNSSN: the amyloid nucleation score was -1.07 ± 0.61. With GNFKAMWFYPYRRCWQCT the figure was -0.944 ± 1.1.
